Patent US8535684

Target: Nedd4 on the surface of virus-infected MDCK cells (canine (MDCK cells))
Experiment: cell-based or functional assay

Substance | inhibition of viral replication (ADCC mediated, in vitro) [% inhibition]
Human Nedd4 antibody Ab101AP | 80
Human Nedd4 antibody Ab27979 | 80
